Measurements from patent publication US20190055316A1.

Legend:
Native hu MSLN (cells) = Native hu MSLN (cells) (UniProt Q13421); assay: KinExA
Soluble human MSLN [1] = target: Soluble human MSLN (UniProt Q13421); assay: Biacore
Soluble human MSLN [2] = target: Soluble human MSLN (UniProt Q13421); assay: Biacore; published value

Chain of Soluble human MSLN (Q13421 296-606): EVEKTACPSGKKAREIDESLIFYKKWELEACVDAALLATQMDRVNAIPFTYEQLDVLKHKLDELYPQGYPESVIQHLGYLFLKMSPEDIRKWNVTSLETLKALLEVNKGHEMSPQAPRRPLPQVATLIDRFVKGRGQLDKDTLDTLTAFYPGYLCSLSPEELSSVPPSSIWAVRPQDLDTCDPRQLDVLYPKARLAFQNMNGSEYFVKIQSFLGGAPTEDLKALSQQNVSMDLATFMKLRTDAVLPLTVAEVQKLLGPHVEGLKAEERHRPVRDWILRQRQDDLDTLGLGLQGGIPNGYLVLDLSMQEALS
Chain of Native hu MSLN (cells) (Q13421 296-606): as above

Kd (Native hu MSLN (cells)): 0.0022 nM
Kd (Soluble human MSLN [1]): 0.16 nM
Kd (Soluble human MSLN [2]): 1.5 nM
Substance: Morab-009 (ssI CDRs)
